The numbers were not newly measured in paper PMC3867676, which cites them from elsewhere.

A word on the Kd: it is the constant that tells how readily two partners part at equilibrium.

Data set [1] concerns the target TRAIL (Homo sapiens) (UniProt P50591).
The target of data set [2] is RANKL (Homo sapiens) (UniProt O14788).
Sequence of UniProt O14788 (O14788 140-317): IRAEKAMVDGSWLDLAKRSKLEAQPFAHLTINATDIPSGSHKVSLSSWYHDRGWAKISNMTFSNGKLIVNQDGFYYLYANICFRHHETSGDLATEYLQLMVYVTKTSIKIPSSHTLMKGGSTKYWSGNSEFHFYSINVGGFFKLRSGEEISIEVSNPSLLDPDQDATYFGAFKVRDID

Sequence of UniProt P50591 (P50591 whole entry): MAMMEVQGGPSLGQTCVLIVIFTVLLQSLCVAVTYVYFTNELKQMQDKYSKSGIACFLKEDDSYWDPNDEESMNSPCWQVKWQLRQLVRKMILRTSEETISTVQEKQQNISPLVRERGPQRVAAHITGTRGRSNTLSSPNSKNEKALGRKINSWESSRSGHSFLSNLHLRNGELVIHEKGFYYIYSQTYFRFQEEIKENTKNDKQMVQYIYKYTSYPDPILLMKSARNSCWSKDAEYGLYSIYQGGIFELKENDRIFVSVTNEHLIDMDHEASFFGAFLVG

In the case of OPG (from UniProt O00300), the values for the Kd in data set [1] and in data set [2] were 45 nM and 23 nM, respectively.
